From patent US20170327600, “RNA-PROTEIN COMPLEX, AND RNA AND PROTEIN DELIVERY SYSTEM USING THE SAME” (KYOTO UNIVERSITY, published 2017) come the findings set out here.

Series [1] addresses T1, L7Ae (UniProt O29494 O29494:1-119). In words: EMSA; triangle also by HS-AFM. The conditions noted are these: tags: expressed from pET-28(+) (Novagen) in E. coli Rosetta; chain copies: 3 per LS-RNA; loop of double-stranded RNA with three K-turn motifs. The procedure:
(§1) Subsequently, according to electrophoretic mobility shift assay (EMSA), the interaction of L7Ae with the LS-RNA was analyzed. After completion of electrophoresis using polyacrylamide gel, the polyacrylamide gel was stained with SYBR Green I and II (Lonza), and formation of an RNA-protein complex was then observed. As a result, it was confirmed that a triangular structure was formed by the interaction of the LS-RNA with L7Ae, as expected, in all of the LS-RNAs (FIG. 2).

Series [2] concerns the target T2, L7Ae-Affibody (L7Ae-AFB) (UniProt O29494 O29494:1-119). The series is described as follows: EMSA; triangle also by HS-AFM. The conditions noted are these: chain copies: 3 per LS-RNA; loop of double-stranded RNA with three K-turn motifs. On the procedure:
as §1
(§2) The function to recognize specific cancer cells was imparted to Tri-RNP. Specifically, a protein (L7Ae-AFB), in which the N-terminus of an affibody_{ZHER2:342} peptide (SEQ ID NOS: 25 and 26) was fused with the C-terminus of L7Ae via […] (SEQ ID NOS: 27 and 28), was prepared by transfecting a plasmid into Escherichia coli in accordance with Ohno, H., et al., as described above. This L7Ae-AFB was added to LS-RNA to construct RNP (Tri-AFB, FIG. 9A). When LS-26 was used as RNA (Tri-26-AFB), a triangular structure was found by HS-AFM, and it was also confirmed that a substance assumed as AFB was added to each vertex (FIG. 9B). Moreover, according to EMSA, it was confirmed that L7Ae-AFB binds to a K-turn motif, as with Tri-26 (FIG. 10).

Series [3] has as its target T1, L7Ae. In words: HS-AFM, triangular structure with L7Ae. The conditions noted are these: tags: expressed from pET-28(+) (Novagen) in E. coli Rosetta; chain copies: 3 per LS-RNA; loop with three K-turn motifs and a GFP siRNA duplex at each side. The procedure: Subsequently, the Tri-RNPs were observed by […]. […] The cantilever was set at a resonance frequency of 400-1000 kHz and at a spring constant of 0.1-0.2 N/m. A probe was deposited on the cantilever by electron beam. The mica surface was coated with 0.1% APTES, and thereafter, a 50 nM sample that had been dissolved in an RNP-binding solvent and an AFM observation solvent (20 mM Tris-HCl (pH7.6) and 10 mM MgCl2) was left at rest on the mica. The image was analyzed using software such as Image J and WSxM.
Specifically, five RNAs were hybridized with S-26, L-26-1 (SEQ ID NO: 29), L-26-2 (SEQ ID NO: 30), L-26-3 (SEQ ID NO: 31), and antisense-GFP (SEQ ID NO: 32) in the same manner as described above, such that L-26 had siRNA for GFP at the three sides thereof, thereby producing LS-26-siGFP. Subsequently, LS-26-siGFP was mixed with L7Ae to produce Tri-26-siGFP having a triangular structure, and the structure of the Tri-26-siGFP was then confirmed by HS-AFM. […] As given above, a triangular structure (Tri-26-siGFP) having a structure containing three double strands having siRNA function could be constructed.

Series [4] addresses T2, L7Ae-Affibody (L7Ae-AFB). The series is described as follows: EMSA. The settings on record: chain copies: 3 per LS-RNA; loop of double-stranded RNA with three K-turn motifs. The procedure: as §1, §2
The target of series [5] is T1, L7Ae. In words: EMSA; 150 KCl (unit printed ml), 1.5 mM MgCl2, 20 mM HEPES-KOH pH 7.5; triangle also by HS-AFM. The conditions noted are these: tags: expressed from pET-28(+) (Novagen) in E. coli Rosetta; chain copies: 3 per LS-RNA; loop of double-stranded RNA with three K-turn motifs. On the procedure:
as §1

T1 sequence (O29494 whole entry, one chain of several): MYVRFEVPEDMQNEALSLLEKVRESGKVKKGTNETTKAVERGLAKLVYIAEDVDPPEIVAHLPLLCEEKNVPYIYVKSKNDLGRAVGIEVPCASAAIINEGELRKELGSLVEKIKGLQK
T2 sequence (O29494 whole entry, one chain of several): as above

B1: LS-26 (dsRNA)
RNA 1: GGCGCAAAGGCCUGUAAUCGGCGUGAUGAGCCAUGCGAGGAGGAAAUGAAGUCCAAUGGCGUGAUGAGCCUCUACGGGAAGAGCAUGCCCAUCCGGGCGUGAUGAGCGUAGCAA
RNA 2: GGCCUUUGCGCCUUGCUACGCUCUGACCCGGAUGGGCAUGCUCUUCCCGUAGAGGCUCUGACCAUUGGACUUCAUUUCCUCCUCGCAUGGCUCUGACCGAUUACA
In the case of B1, the binding result with L7Ae [1] and with L7Ae-Affibody (L7Ae-AFB) [2] was “binds” each time.

B2: LS-26-siGFP (dsRNA)
RNA 1: GGCAUCAAGGUGAACUUCAAGAUCCGCAAAGGCCUGUAAUCGGCGUGAUGAGCCAUGCGAGGA
RNA 2: GGCAUCAAGGUGAACUUCAAGAUCCGGAAAUGAAGUCCAAUGGCGUGAUGAGCCUCUACGGGA
RNA 3: GGCAUCAAGGUGAACUUCAAGAUCCAGAGCAUGCCCAUCCGGGCGUGAUGAGCGUAGCAAGGC
RNA 4: GGCCUUUGCGCCUUGCUACGCUCUGACCCGGAUGGGCAUGCUCUUCCCGUAGAGGCUCUGACCAUUGGACUUCAUUUCCUCCUCGCAUGGCUCUGACCGAUUACA
RNA 5: GGAUCUUGAAGUUCACCUUGAUGCCAG
On to B2, for which, in the series with L7Ae [3], the binding result was “binds”.

B3: LS-48 (dsRNA)
RNA 1: GGACGAGCUGUACACCAUGGUGACCGCCGCCGGGCGUGAUGAGCUCCAAGGACCCCAACGAGAAGCGCGAUCACAUGAUCUACUUCGGCUUCGGCGUGAUGAGCCCUGUGCUGCUGCCCGAUAACCACUACCUGCCAUCACCCACGGCCCUGGGCGUGAUGAGCAUUCCACCCAGAGCGC
RNA 2: GGUGUACAGCUCGUCCGCGCUCUGGGUGGAAUGCUCUGACCCAGGGCCGUGGGUGAUGGCAGGUAGUGGUUAUCGGGCAGCAGCACAGGGCUCUGACCGAAGCCGAAGUAGAUCAUGUGAUCGCGCUUCUCGUUGGGGUCCUUGGAGCUCUGACCCGGCGGCGGUCACCAU
With B3, the binding result in the series with L7Ae [1] and with L7Ae-Affibody (L7Ae-AFB) [4] was “binds” throughout.

B4: LS-15 (dsRNA)
RNA 1: GGUGAAGGGCGUGAUGAGCGAGAAGUCCGGCUUCGGCGUGAUGAGCCCUGUGCCGGCCCUGGGCGUGAUGAGCAUUCCACC
RNA 2: GGACUUCUCGCUCUGACCCUUCACCGGUGGAAUGCUCUGACCCAGGGCCGGCACAGGGCUCUGACCGAAGCC
With B4, the binding result with L7Ae [5] and with L7Ae-Affibody (L7Ae-AFB) [4] was “binds” throughout.
